Assay results: PMC11137106

Each substance was assayed against ribosomal protein L23 (E. coli (endogenous in A19 cell extract)) (UniProt P0ADZ0) (assay: cross-linking; zero-length EDC crosslinking of resuspended RNCs (ca. 30 nM) made in WT or Δtig A19 E. coli cell-free system (WT: TF 2–15 nM, DnaK 0.5 µM, DnaJ 0.04 µM, GrpE 0.05 µM), +/- puromycin; low-pH SDS-PAGE of the BODIPY-FL nascent chain and Western blots against L23, L24 and L29; percent crosslinking by ImageJ).
“apoHmp_(1–55) ribosome-bound nascent chain (from UniProt P24232 1-55) (domain or fragment; other documents disagree on this pair)” was tested, and the % EDC crosslinking was 27.4% and the normalized % EDC crosslinking (per EDC-reactive residue beyond the ribosomal tunnel core) was 5.5%.
“apoHmp_(1–140) ribosome-bound nascent chain (from UniProt P24232 1-140) (domain or fragment; other documents disagree on this pair)” gave a % EDC crosslinking of 92% and a normalized % EDC crosslinking (per EDC-reactive residue beyond the ribosomal tunnel core) of 4.6%.
For “apoHmp_(1–189) ribosome-bound nascent chain (from UniProt P24232 1-189) (domain or fragment; other documents disagree on this pair)”, the % EDC crosslinking was 85% and the normalized % EDC crosslinking (per EDC-reactive residue beyond the ribosomal tunnel core) was 2.8%.
